The assay concerns the target T1, cTnI quality control product recombinant protein (human, UniProt P19429 1-210, limits assumed).
T1 construct: the assay paragraphs only say cTnI; also called cardiac troponin I; cTnI antigen
The experiment in a line: AMC biosensor, antibody on sensor. As for the experimental part: Operating process: it is equilibrated in Buffer 1 (PBST) for 60 s, the antibody is immobilized in an antibody solution for 300 s, incubated in Buffer 2 (PBST) for 180 s, bound in antigen solution for 420 s, dissociated in the Buffer 2 for 1200 s, 10 mM of GLY solution with pH 1.69 and Buffer 3 are used for sensor regeneration, and data is output.

T1 sequence (P19429 whole entry): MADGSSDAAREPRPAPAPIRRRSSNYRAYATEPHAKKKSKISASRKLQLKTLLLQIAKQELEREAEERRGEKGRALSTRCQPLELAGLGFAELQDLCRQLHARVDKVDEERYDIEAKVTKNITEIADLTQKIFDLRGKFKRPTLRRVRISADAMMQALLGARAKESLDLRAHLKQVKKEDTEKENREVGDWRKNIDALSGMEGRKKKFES

B1: Mutation 1-47 (antibody, V domains shown)
VH: QVQLQQSGTELAKPGASVKFSCKASGYTFTTYWMYWIKQRPGQGLEWIGYLNPSTGHTDYNQKFKDKATLTADKSSSTAYMQLNSLTSEDSAVYYCARRYYGPFGMDYWGQGTSVTVSS
VL: EIFLTQSPAIMSASPGEKVTMTCSASTTVSYVHWYQQKSGTSPKRWLYDTSKIASGIPVRFSGSGSGTSYSLTISSMEAEDAATYYCQQWSTQPYTFGGGTKLEIKR
One may read the Kd as the free concentration of one partner at which half of the binding sites on the other are occupied at equilibrium, for simple one-to-one binding. By koff is commonly meant the first-order rate constant of dissociation. As usually defined, the kon is a measure of how fast the partners come together. As for B1, the Kd worked out at 2.03 nM, the koff is 6.94e-05 s⁻¹ and the kon came out at 34100 M⁻¹ s⁻¹.

B2: Mutation 1-19 (antibody, V domains shown)
VH: QVQLQQSGTELAKPGASVKFSCKASGYTFTSYWMYWIKQRPGQGLEWIGYLNPSTGHTDYNQKFKDKATLTADKSSSTAYMQLNSLTSEDSAVYYCARRYYGPFGMDYWGQGTSVTVSS
VL: EIFLTQSPAIMSASPGEKVTMTCSASSSVSYVHWYQQKSGTSPKRWIYDTSKLASGIPVRFSGSGSGTSYSLTISSMEAEDAATYYCQQWSSQPYTFGGGTKLEIKR
For the molecule B2, the Kd came out at 6.54 nM, the koff is 7.12e-05 s⁻¹ and the kon is 10900 M⁻¹ s⁻¹.

B3: Mutation 1-14 (antibody, V domains shown)
VH: QVQLQQSGTELAKPGASVKFSCKASGYTFTSYWMYWIKQRPGQGLEWIGYLNPSTGHTDYNQKFKDKATLTADKSSSTAYMQLNSLTSEDSAVYYCARRYWGPFGMDYWGQGTSVTVSS
VL: EIFLTQSPAIMSASPGEKVTMTCSASSTVSYVHWYQQKSGTSPKRWLYDTSKLASGIPVRFSGSGSGTSYSLTISSMEAEDAATYYCQQWSTQPYTFGGGTKLEIKR
Take B3: the Kd came to 7.84 nM, the koff was 0.000217 s⁻¹ and the kon is 27700 M⁻¹ s⁻¹.

B4: Mutation 1-15 (antibody, V domains shown)
VH: QVQLQQSGTELAKPGASVKFSCKASGYTFTTYWMYWIKQRPGQGLEWIGYLNPSSGHTDYNQRFKDKATLTADKSSSTAYMQLNSLTSEDSAVYYCARKYFGPFGMDYWGQGTSVTVSS
VL: EIFLTQSPAIMSASPGEKVTMTCSASTSVSYVHWYQQKSGTSPKRWIYDTSKLASGIPVRFSGSGSGTSYSLTISSMEAEDAATYYCQQWSTQPYTFGGGTKLEIKR
notes: CDR-VL3 cell prints 'TQ', read as T/Q
B4: the Kd is 1.16 nM, the koff worked out at 2.1e-05 s⁻¹ and the kon was found to be 18100 M⁻¹ s⁻¹.

B5: Mutation 1-13 (antibody, V domains shown)
VH: QVQLQQSGTELAKPGASVKFSCKASGYTFSSYWMYWIKQRPGQGLEWIGYLNPSSGHTDYNQRFKDKATLTADKSSSTAYMQLNSLTSEDSAVYYCARRYYGPFGMDYWGQGTSVTVSS
VL: EIFLTQSPAIMSASPGEKVTMTCSASSSVSYVHWYQQKSGTSPKRWIYDTSKIASGIPVRFSGSGSGTSYSLTISSMEAEDAATYYCQQWSTQPYTFGGGTKLEIKR
Consider B5, for which the Kd was 4.42 nM, the koff amounted to 7.82e-05 s⁻¹ and the kon turned out to be 17700 M⁻¹ s⁻¹.

B6: Mutation 1-20 (antibody, V domains shown)
VH: QVQLQQSGTELAKPGASVKFSCKASGYTFSTYWMYWIKQRPGQGLEWIGYLNPSSGHTDYNQKFKDKATLTADKSSSTAYMQLNSLTSEDSAVYYCARRYWGPFGMDYWGQGTSVTVSS
VL: EIFLTQSPAIMSASPGEKVTMTCSASSTVSYVHWYQQKSGTSPKRWLYDTSKIASGIPVRFSGSGSGTSYSLTISSMEAEDAATYYCQQWSSQPYTFGGGTKLEIKR
B6: the Kd is 1.38 nM, the koff came out at 2.3e-05 s⁻¹ and the kon is 16600 M⁻¹ s⁻¹.

B7: Mutation 1-21 (antibody, V domains shown)
VH: QVQLQQSGTELAKPGASVKFSCKASGYTFSSYWMYWIKQRPGQGLEWIGYLNPSTGHTDYNQRFKDKATLTADKSSSTAYMQLNSLTSEDSAVYYCARKYFGPFGMDYWGQGTSVTVSS
VL: EIFLTQSPAIMSASPGEKVTMTCSASTSVSYVHWYQQKSGTSPKRWIYDTSKIASGIPVRFSGSGSGTSYSLTISSMEAEDAATYYCQQWSSQPYTFGGGTKLEIKR
In the case of B7, the Kd came out at 9.92 nM, the koff turned out to be 0.000262 s⁻¹ and the kon was 26100 M⁻¹ s⁻¹.

B8: Mutation 1-17 (antibody, V domains shown)
VH: QVQLQQSGTELAKPGASVKFSCKASGYTFSSYWMYWIKQRPGQGLEWIGYINPSTGHTDYNQRFKDKATLTADKSSSTAYMQLNSLTSEDSAVYYCARKYWGPFGMDYWGQGTSVTVSS
VL: EIFLTQSPAIMSASPGEKVTMTCSASSSVSYVHWYQQKSGTSPKRWIYDTSKIASGIPVRFSGSGSGTSYSLTISSMEAEDAATYYCQQWSSQPYTFGGGTKLEIKR
In the case of B8, the Kd is 2.98 nM, the koff came out at 9.97e-05 s⁻¹ and the kon is 33500 M⁻¹ s⁻¹.

B9: WT 1-7 (antibody, V domains shown)
VH: QVQLQQSGTELAKPGASVKFSCKASDYTFTTYWMYWIKQRPGQGLEWIGYLNPSTGHTEYNQKFKDKATLTADKSSSTAYMQLNSLTSEDSAVYYCARRYYGPFAMDYWGQGTSVTVSS
VL: EIFLTQSPAIMSASPGEKVTMTCSASTSVSYAHWYQQKSGTSPKRWIYDSSKLASGIPVRFSGSGSGTSYSLTISSMEAEDAATYYCQNWSTNPYTFGGGTKLEIKR
As to B9, the Kd is 28.6 nM, the koff turned out to be 0.000795 s⁻¹ and the kon worked out at 27800 M⁻¹ s⁻¹.

B10: WT 1-2 (antibody, V domains shown)
VH: QVQLQQSGTELAKPGASVKFSCKASDYTFTSYWMYWIKQRPGQGLEWIGYINPSSGHTEYNQRFKDKATLTADKSSSTAYMQLNSLTSEDSAVYYCARRYWGPFAMDYWGQGTSVTVSS
VL: EIFLTQSPAIMSASPGEKVTMTCSASSTVSYAHWYQQKSGTSPKRWLYDSSKLASGIPVRFSGSGSGTSYSLTISSMEAEDAATYYCQNWSSQPYTFGGGTKLEIKR
With B10, the Kd turned out to be 28.5 nM, the koff amounted to 0.000741 s⁻¹ and the kon worked out at 26000 M⁻¹ s⁻¹.

B11: Mutation 1-55 (antibody, V domains shown)
VH: QVQLQQSGTELAKPGASVKFSCKASGYTFSTYWMYWIKQRPGQGLEWIGYLNPSSGHTDYNQKFKDKATLTADKSSSTAYMQLNSLTSEDSAVYYCARKYYGPFGMDYWGQGTSVTVSS
VL: EIFLTQSPAIMSASPGEKVTMTCSASTTVSYVHWYQQKSGTSPKRWIYDTSKLASGIPVRFSGSGSGTSYSLTISSMEAEDAATYYCQQWSTNPYTFGGGTKLEIKR
notes: T0002 combination 56 prints L/L
In the case of B11, the Kd came to 2.07 nM, the koff came out at 6.36e-05 s⁻¹ and the kon was 30700 M⁻¹ s⁻¹.

B12: WT 1-6 (antibody, V domains shown)
VH: QVQLQQSGTELAKPGASVKFSCKASDYTFTSYWMYWIKQRPGQGLEWIGYLNPSSGHTEYNQRFKDKATLTADKSSSTAYMQLNSLTSEDSAVYYCARRYFGPFAMDYWGQGTSVTVSS
VL: EIFLTQSPAIMSASPGEKVTMTCSASSTVSYAHWYQQKSGTSPKRWLYDSSKLASGIPVRFSGSGSGTSYSLTISSMEAEDAATYYCQNWSTNPYTFGGGTKLEIKR
On to B12, for which the Kd stood at 51.5 nM, the koff amounted to 0.00131 s⁻¹ and the kon turned out to be 25500 M⁻¹ s⁻¹.

B13: Mutation 1-54 (antibody, V domains shown)
VH: QVQLQQSGTELAKPGASVKFSCKASGYTFSSYWMYWIKQRPGQGLEWIGYLNPSSGHTDYNQKFKDKATLTADKSSSTAYMQLNSLTSEDSAVYYCARRYFGPFGMDYWGQGTSVTVSS
VL: EIFLTQSPAIMSASPGEKVTMTCSASTTVSYVHWYQQKSGTSPKRWLYDTSKIASGIPVRFSGSGSGTSYSLTISSMEAEDAATYYCQQWSTQPYTFGGGTKLEIKR
Regarding B13, the Kd came out at 1.63 nM, the koff is 7.3e-05 s⁻¹ and the kon came out at 44900 M⁻¹ s⁻¹.

B14: Mutation 1-53 (antibody, V domains shown)
VH: QVQLQQSGTELAKPGASVKFSCKASGYTFSSYWMYWIKQRPGQGLEWIGYINPSTGHTDYNQRFKDKATLTADKSSSTAYMQLNSLTSEDSAVYYCARKYYGPFGMDYWGQGTSVTVSS
VL: EIFLTQSPAIMSASPGEKVTMTCSASTTVSYVHWYQQKSGTSPKRWIYDTSKLASGIPVRFSGSGSGTSYSLTISSMEAEDAATYYCQQWSTNPYTFGGGTKLEIKR
With B14, the Kd was found to be 8 nM, the koff turned out to be 0.0004 s⁻¹ and the kon was 50000 M⁻¹ s⁻¹.

B15: WT 1-8 (antibody, V domains shown)
VH: QVQLQQSGTELAKPGASVKFSCKASDYTFSTYWMYWIKQRPGQGLEWIGYINPSTGHTEYNQKFKDKATLTADKSSSTAYMQLNSLTSEDSAVYYCARRYWGPFAMDYWGQGTSVTVSS
VL: EIFLTQSPAIMSASPGEKVTMTCSASTTVSYAHWYQQKSGTSPKRWLYDSSKIASGIPVRFSGSGSGTSYSLTISSMEAEDAATYYCQNWSTQPYTFGGGTKLEIKR
For B15, the Kd worked out at 75.1 nM, the koff came to 0.00221 s⁻¹ and the association rate constant (kon) was found to be 29400 M⁻¹ s⁻¹.

B16: WT 1-1 (antibody, V domains shown)
VH: QVQLQQSGTELAKPGASVKFSCKASDYTFSTYWMYWIKQRPGQGLEWIGYINPSTGHTEYNQKFKDKATLTADKSSSTAYMQLNSLTSEDSAVYYCARRYYGPFAMDYWGQGTSVTVSS
VL: EIFLTQSPAIMSASPGEKVTMTCSASSSVSYAHWYQQKSGTSPKRWIYDSSKIASGIPVRFSGSGSGTSYSLTISSMEAEDAATYYCQNWSTNPYTFGGGTKLEIKR
As for B16, the Kd was 68.4 nM, the koff came out at 0.00165 s⁻¹ and the kon amounted to 24100 M⁻¹ s⁻¹.

B17: WT 1-5 (antibody, V domains shown)
VH: QVQLQQSGTELAKPGASVKFSCKASDYTFSSYWMYWIKQRPGQGLEWIGYLNPSTGHTEYNQKFKDKATLTADKSSSTAYMQLNSLTSEDSAVYYCARKYWGPFAMDYWGQGTSVTVSS
VL: EIFLTQSPAIMSASPGEKVTMTCSASSSVSYAHWYQQKSGTSPKRWIYDSSKIASGIPVRFSGSGSGTSYSLTISSMEAEDAATYYCQNWSTNPYTFGGGTKLEIKR
As for B17, the Kd came to 48.6 nM, the koff came out at 0.0017 s⁻¹ and the kon was 35000 M⁻¹ s⁻¹.

B18: WT 1-3 (antibody, V domains shown)
VH: QVQLQQSGTELAKPGASVKFSCKASDYTFTTYWMYWIKQRPGQGLEWIGYINPSTGHTEYNQKFKDKATLTADKSSSTAYMQLNSLTSEDSAVYYCARKYFGPFAMDYWGQGTSVTVSS
VL: EIFLTQSPAIMSASPGEKVTMTCSASTSVSYAHWYQQKSGTSPKRWIYDSSKLASGIPVRFSGSGSGTSYSLTISSMEAEDAATYYCQNWSSNPYTFGGGTKLEIKR
As for B18, the Kd came to 10.8 nM, the koff came out at 0.000372 s⁻¹ and the association rate constant (kon) was found to be 34400 M⁻¹ s⁻¹.

These data come from patent US20220033483A1 (GUAGNDONG FEIPENG BIOLOGICAL, published 2022).
